Laboratory results from the supplement of paper PMC9112550, “Optimization of the antimicrobial peptide Bac7 by deep mutational scanning” (BMC Biology, 2022).

Test system: Escherichia coli TOP10
Assay: shrunken log2 fold change of peptide-encoding DNA abundance (4.5 h post-induction vs induction); higher = less antimicrobial activity (less host growth inhibition)
Conditions: time post-induction: 4.5 h; library: site-saturation at positions 5, 18, 19, 20
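Further: peptides expressed intracellularly from a pBAD plasmid library in pooled LB shake-flask culture, induced with 0.3% L-arabinose, DNA abundance read by NGS, three biological replicates, DESeq2 with apeglm shrinkage.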

| Sequence | shrunken log2 fold change |
| --- | --- |
| RRIRHRPPRLPRPRPRPEIGPRP | 0.103 |
| RRIRRRPPRLPRPRPRPTIKPRP | -0.0992 |
| RRIRDRPPRLPRPRPRPKVHPRP | -0.216 |
| RRIRCRPPRLPRPRPRPTPMPRP | 0.534 |
| RRIRERPPRLPRPRPRPSIEPRP | -0.37 |
| RRIRYRPPRLPRPRPRPHWHPRP | -0.912 |
| RRIRSRPPRLPRPRPRPEGLPRP | -0.0431 |
| RRIRQRPPRLPRPRPRPLHNPRP | 0.00263 |
| RRIRTRPPRLPRPRPRPFGFPRP | -0.473 |
| RRIRWRPPRLPRPRPRPMMDPRP | 0.000475 |
| RRIRQRPPRLPRPRPRPPDGPRP | 0.351 |
| RRIRKRPPRLPRPRPRPCFEPRP | 0.336 |
| RRIRSRPPRLPRPRPRPGDEPRP | 0.0674 |
| RRIRGRPPRLPRPRPRPNDCPRP | -0.04 |
| RRIRRRPPRLPRPRPRPKDNPRP | 0.0969 |
| RRIRKRPPRLPRPRPRPYSLPRP | -0.0434 |
| RRIRLRPPRLPRPRPRPDSGPRP | -0.00166 |
| RRIRNRPPRLPRPRPRPQSAPRP | -0.073 |
| RRIRCRPPRLPRPRPRPRAEPRP | 0.539 |
| RRIRWRPPRLPRPRPRPGAGPRP | 0.796 |
| RRIRLRPPRLPRPRPRPHGKPRP | -0.191 |
| RRIRIRPPRLPRPRPRPHYSPRP | -1.15 |
| RRIRLRPPRLPRPRPRPLIWPRP | 0.0251 |
| RRIRIRPPRLPRPRPRPIPVPRP | -0.0943 |
| RRIRFRPPRLPRPRPRPCRCPRP | -0.735 |

| Sequence | shrunken log2 fold change |
| --- | --- |
| RRIRCRPPRLPRPRPRPNKRPRP | -0.42 |
| RRIRNRPPRLPRPRPRPPVKPRP | -0.123 |
| RRIRYRPPRLPRPRPRPEIPPRP | 0.0336 |
| RRIRYRPPRLPRPRPRPAWYPRP | -0.687 |
| RRIRYRPPRLPRPRPRPIVVPRP | -0.414 |
| RRIRYRPPRLPRPRPRPCGCPRP | -0.0582 |
| RRIRLRPPRLPRPRPRPWQRPRP | -0.161 |
| RRIRMRPPRLPRPRPRPRQQPRP | 0.854 |
| RRIRSRPPRLPRPRPRPDDSPRP | -0.237 |
| RRIRMRPPRLPRPRPRPGVEPRP | 1.39 |
| RRIRQRPPRLPRPRPRPDRMPRP | -0.0981 |
| RRIRHRPPRLPRPRPRPRWAPRP | 0.315 |
| RRIRGRPPRLPRPRPRPTQFPRP | 0.772 |
| RRIRKRPPRLPRPRPRPISFPRP | -0.1 |
| RRIRFRPPRLPRPRPRPWWNPRP | -0.26 |
| RRIRHRPPRLPRPRPRPSKNPRP | -0.163 |
| RRIRERPPRLPRPRPRPSAIPRP | -0.115 |
| RRIRPRPPRLPRPRPRPHLHPRP | -0.0768 |
| RRIRLRPPRLPRPRPRPDQPPRP | -0.129 |
| RRIRNRPPRLPRPRPRPIMTPRP | -0.269 |
| RRIRARPPRLPRPRPRPCSTPRP | -0.0691 |
| RRIRYRPPRLPRPRPRPAYKPRP | -0.14 |
| RRIRWRPPRLPRPRPRPWASPRP | 0.014 |
| RRIRKRPPRLPRPRPRPWYWPRP | -0.151 |
| RRIRQRPPRLPRPRPRPPFIPRP | -0.0092 |

| Sequence | shrunken log2 fold change |
| --- | --- |
| RRIRERPPRLPRPRPRPSFVPRP | -0.588 |
| RRIRMRPPRLPRPRPRPAWIPRP | 0.052 |
| RRIRNRPPRLPRPRPRPPCYPRP | -0.41 |
| RRIRWRPPRLPRPRPRPTDCPRP | 0.088 |
| RRIRTRPPRLPRPRPRPMTLPRP | -0.028 |
| RRIRPRPPRLPRPRPRPIEYPRP | 0.0392 |
| RRIRKRPPRLPRPRPRPICGPRP | 0.0699 |
| RRIRRRPPRLPRPRPRPEPVPRP | 0.367 |
| RRIRIRPPRLPRPRPRPKSPPRP | -0.0939 |
| RRIRVRPPRLPRPRPRPYSYPRP | 0.128 |
| RRIRQRPPRLPRPRPRPYGPPRP | -0.415 |
| RRIRMRPPRLPRPRPRPDRVPRP | 0.0719 |
| RRIRYRPPRLPRPRPRPMHKPRP | -0.454 |
| RRIRLRPPRLPRPRPRPRWVPRP | 0.237 |
| RRIRVRPPRLPRPRPRPYWVPRP | -0.0928 |
| RRIRRRPPRLPRPRPRPGQYPRP | -0.16 |
| RRIRSRPPRLPRPRPRPCASPRP | 0.121 |
| RRIRCRPPRLPRPRPRPRQCPRP | 0.0586 |
| RRIRGRPPRLPRPRPRPPAEPRP | 1.64 |
| RRIRSRPPRLPRPRPRPDDWPRP | 0.155 |
| RRIRERPPRLPRPRPRPCAWPRP | -0.0536 |
| RRIRHRPPRLPRPRPRPVDNPRP | 0.013 |
| RRIRWRPPRLPRPRPRPEAQPRP | 0.779 |
| RRIRKRPPRLPRPRPRPVIQPRP | -0.0501 |
| RRIRIRPPRLPRPRPRPYNSPRP | -0.0199 |

| Sequence | shrunken log2 fold change |
| --- | --- |
| RRIRKRPPRLPRPRPRPGFCPRP | 0.243 |
| RRIRFRPPRLPRPRPRPNLAPRP | -0.0885 |
| RRIRERPPRLPRPRPRPWRDPRP | -0.268 |
| RRIRLRPPRLPRPRPRPLYQPRP | -0.833 |
| RRIRMRPPRLPRPRPRPKHRPRP | 0.229 |
| RRIRCRPPRLPRPRPRPPDNPRP | 0.0386 |
| RRIRKRPPRLPRPRPRPYDSPRP | 0.0392 |
| RRIRVRPPRLPRPRPRPLALPRP | -0.181 |
| RRIRSRPPRLPRPRPRPHQFPRP | -0.124 |
| RRIRQRPPRLPRPRPRPKEGPRP | -0.0167 |
| RRIRPRPPRLPRPRPRPWPDPRP | -0.149 |
| RRIRCRPPRLPRPRPRPTCTPRP | -0.2 |
| RRIRIRPPRLPRPRPRPGFYPRP | 0.054 |
| RRIRGRPPRLPRPRPRPAYHPRP | -0.141 |
| RRIRNRPPRLPRPRPRPRDHPRP | -0.219 |
| RRIRPRPPRLPRPRPRPVPPPRP | 0.26 |
| RRIRARPPRLPRPRPRPITPPRP | -0.0533 |
| RRIRQRPPRLPRPRPRPPSCPRP | 0.348 |
| RRIRNRPPRLPRPRPRPHFMPRP | -0.409 |
| RRIRMRPPRLPRPRPRPTKMPRP | 0.745 |
| RRIRYRPPRLPRPRPRPNQEPRP | 0.000655 |
| RRIRKRPPRLPRPRPRPDNLPRP | -0.0561 |
| RRIRVRPPRLPRPRPRPNFPPRP | 0.0508 |
| RRIRWRPPRLPRPRPRPAMLPRP | 0.365 |
| RRIRDRPPRLPRPRPRPLCNPRP | -0.00406 |

| Sequence | shrunken log2 fold change |
| --- | --- |
| RRIRKRPPRLPRPRPRPCAQPRP | 0.208 |
| RRIRGRPPRLPRPRPRPCDHPRP | 0.135 |
| RRIRHRPPRLPRPRPRPVKFPRP | -0.0191 |
| RRIRLRPPRLPRPRPRPRWMPRP | 0.162 |
| RRIRPRPPRLPRPRPRPNVAPRP | -0.215 |
| RRIRHRPPRLPRPRPRPIFSPRP | -0.176 |
| RRIRMRPPRLPRPRPRPTYHPRP | -0.242 |
| RRIRVRPPRLPRPRPRPSHIPRP | -0.706 |
| RRIRWRPPRLPRPRPRPHPPPRP | 0.348 |
| RRIRWRPPRLPRPRPRPGCQPRP | -0.0225 |
| RRIRKRPPRLPRPRPRPSRIPRP | 0.156 |
| RRIRGRPPRLPRPRPRPNDQPRP | 0.265 |
| RRIRARPPRLPRPRPRPHRYPRP | -0.147 |
| RRIRSRPPRLPRPRPRPVARPRP | 0.148 |
| RRIRQRPPRLPRPRPRPFSDPRP | -0.00196 |
| RRIRLRPPRLPRPRPRPGCGPRP | 0.49 |
| RRIRVRPPRLPRPRPRPCLGPRP | -0.069 |
| RRIRHRPPRLPRPRPRPAPKPRP | -0.164 |
| RRIRSRPPRLPRPRPRPLHTPRP | 0.0576 |
| RRIRKRPPRLPRPRPRPGNNPRP | -0.107 |
| RRIRPRPPRLPRPRPRPLFCPRP | -0.0561 |
| RRIRVRPPRLPRPRPRPQSAPRP | -0.054 |
| RRIRMRPPRLPRPRPRPPGDPRP | 1.51 |
| RRIRTRPPRLPRPRPRPHASPRP | -0.033 |
| RRIRQRPPRLPRPRPRPCLGPRP | 0.172 |
